Results taken from the supplement of paper PMC10598134.
± gives the standard deviation.

Assay: collision cross section of modified peptide (TIMS, N2, iRT-aligned); higher = larger / more extended gas-phase ion
Method in brief: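 Values are averages of 1–3 technical replicates of the most abundant feature for each charge state. Collision cross section was obtained from the Mason-Schamp equation after 1/K0 calibration with three reference ions and run-wise alignment to the median iRT peptide deviation. Synthetic peptide pools (iRT standard spiked 1:40) were separated on a 120-min nanoflow C18 gradient at 60 °C, analysed on a timsTOF Pro/HT (dda-PASEF, nitrogen, ~2.4 mbar) and identified with MaxQuant.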

[1] = charge state: 2, modification: Methyl (K)
[2] = charge state: 3, modification: Methyl (K)
[3] = charge state: 2, modification: Biotin
[4] = charge state: 2, modification: hydroxyisobutyryl
[5] = charge state: 3, modification: hydroxyisobutyryl
[6] = charge state: 2, modification: Glutarylation
[7] = charge state: 3, modification: Glutarylation
[8] = charge state: 2, modification: Phospho (Y)
[9] = charge state: 2, modification: Nitro (Y)

LGNDFHTNKR [_LGNDFHTNK(Methyl (K))R_]
collision cross section [1]: 368.02 ± 0.46 Å²
collision cross section [2]: 430.67 ± 6.2 Å²

LGVATVAKGVCGACK [_LGVATVAK(Biotin)GVCGACK_]
collision cross section [3]: 431.82 Å²
collision cross section (charge state: 3, modification: Biotin): 507.7 Å²

KYEEIDNAPEER [_K(hydroxyisobutyryl)YEEIDNAPEER_]
collision cross section [4]: 416.12 ± 0.31 Å²
collision cross section [5]: 497.05 ± 3.9 Å²

DVNAAIAAIKTK [_DVNAAIAAIK(Trimethyl (K))TK_]
collision cross section (charge state: 2, modification: Trimethyl (K)): 402.42 ± 1.1 Å²
collision cross section (charge state: 3, modification: Trimethyl (K)): 465.71 ± 2.2 Å²

DDSFLGKLGGTLAR [_DDSFLGK(Gluratylation)LGGTLAR_]
collision cross section [6]: 415.27 ± 0.59 Å²
collision cross section [7]: 485.15 Å²

YSSSSIPEPFGSRGSPR [_YSSSSIPEPFGSR(Citrullination (R))GSPR_]
collision cross section (charge state: 2, modification: Citrullination (R)): 439.28 ± 0.2 Å²
collision cross section (charge state: 3, modification: Citrullination (R)): 523.88 Å²

GGGFGAHGRGR [_GGGFGAHGR(Methyl (R))GR_]
collision cross section (charge state: 2, modification: Methyl (R)): 351.67 ± 1.1 Å²
collision cross section (charge state: 3, modification: Methyl (R)): 421.56 ± 5.3 Å²

DTGEKLTVAENEAETK [_DTGEK(hydroxyisobutyryl)LTVAENEAETK_]
collision cross section [4]: 449.65 ± 0.82 Å²
collision cross section [5]: 520.27 ± 2.8 Å²

SYISSQTNDTHK [_SYIS(HexNAc (ST))SQTNDTHK_]
collision cross section (charge state: 3, modification: HexNAc (ST)): 474.05 ± 0.17 Å²

DVNAAIAAIKTK [_DVNAAIAAIK(hydroxyisobutyryl)TK_]
collision cross section [4]: 392.68 ± 15 Å²
collision cross section [5]: 466.43 ± 5.5 Å²

VFIGNLNTLVVKKK [_VFIGNLNTLVVK(Methyl (K))KK_]
collision cross section [2]: 483.02 ± 5.9 Å²

ATAVVDGAFK [_AT(HexNAc (ST))AVVDGAFK_]
collision cross section (charge state: 2, modification: HexNAc (ST)): 362.47 ± 0.64 Å²

IQQELQTAKK [_IQQELQTAK(hydroxyisobutyryl)K_]
collision cross section [4]: 386.63 ± 0.81 Å²

LGSPSGKTGTCR [_LGSPSGK(hydroxyisobutyryl)TGTCR_]
collision cross section [4]: 375.43 Å²

SLGEPAAGEGSAKR [_SLGEPAAGEGSAK(hydroxyisobutyryl)R_]
collision cross section [4]: 389.47 ± 1.5 Å²
collision cross section [5]: 485.86 ± 2.8 Å²

IINEPTAAAIAYGLDKK [_IINEPTAAAIAYGLDK(Formyl)K_]
collision cross section (charge state: 2, modification: Formyl): 458.24 ± 1.2 Å²
collision cross section (charge state: 3, modification: Formyl): 548.84 ± 1.7 Å²

PGPVGPPGSGGLK [_PGPVGPP(Hydroxyproline)GSGGLK_]
collision cross section (charge state: 2, modification: Hydroxyproline): 349.24 ± 3.9 Å²

YSTSGSSGLTTGK [_Y(Phospho (Y))STSGSSGLTTGK_]
collision cross section [8]: 375.26 ± 0.063 Å²

VFIGNLNTLVVKK [_VFIGNLNTLVVK(Gluratylation)K_]
collision cross section [6]: 424.62 ± 0.97 Å²
collision cross section [7]: 495.12 ± 1.7 Å²

DLSTVEALQNLKNLK [_DLSTVEALQNLK(Methyl (K))NLK_]
collision cross section [1]: 475.78 ± 3.5 Å²
collision cross section [2]: 545.72 ± 1.2 Å²

TLDEILQEKK [_TLDEILQEK(Methyl (K))K_]
collision cross section [1]: 377.9 ± 1.7 Å²
collision cross section [2]: 432.26 ± 5.2 Å²

VFIGNLNTLVVKK [_VFIGNLNTLVVK(Dimethyl (K))K_]
collision cross section (charge state: 2, modification: Dimethyl (K)): 427.12 ± 1.4 Å²
collision cross section (charge state: 3, modification: Dimethyl (K)): 478.47 ± 1.2 Å²

IINEPTAAAIAYGLDKK [_IINEPTAAAIAYGLDK(Gluratylation)K_]
collision cross section [6]: 470.31 ± 1.8 Å²
collision cross section [7]: 565.52 ± 1.3 Å²

LLEEEDSKLK [_LLEEEDSK(Succinyl)LK_]
collision cross section (charge state: 2, modification: Succinyl): 381.87 ± 0.24 Å²
collision cross section (charge state: 3, modification: Succinyl): 464.35 Å²

VFIGNLNTLVVKKK [_VFIGNLNTLVVK(hydroxyisobutyryl)KK_]
collision cross section [5]: 515.31 ± 2.1 Å²

GFALVGVGSEASSKK [_GFALVGVGSEASSK(Crotonyl)K_]
collision cross section (charge state: 2, modification: Crotonyl): 448.38 ± 0.94 Å²
collision cross section (charge state: 3, modification: Crotonyl): 499.08 ± 1.9 Å²

STGLELETPSLVPVKK [_STGLELETPSLVPVK(Biotin)K_]
collision cross section [3]: 465.71 Å²

VVPGYGHAVLR [_VVPGY(Phospho (Y))GHAVLR_]
collision cross section [8]: 386.55 ± 0.062 Å²
collision cross section (charge state: 3, modification: Phospho (Y)): 451.71 Å²

LTEKELAEAASK [_LTEK(Biotin)ELAEAASK_]
collision cross section [3]: 418.47 ± 3 Å²

GERGFPGYPGPK [_GERGFPGYP(Hydroxyproline)GPK_]
collision cross section (charge state: 3, modification: Hydroxyproline): 456.01 ± 1.2 Å²

LPEYPQVDDLLLR [_LPEY(Nitro (Y))PQVDDLLLR_]
collision cross section [9]: 424.61 ± 1.1 Å²

ASCLYGQLPK [_ASCLY(Nitro (Y))GQLPK_]
collision cross section [9]: 365.43 ± 2.1 Å²

DTGEKLTVAENEAETK [_DTGEK(Gluratylation)LTVAENEAETK_]
collision cross section [6]: 451.19 ± 1.1 Å²
collision cross section [7]: 527.35 Å²
